Measured values reported in patent US9822336B2, “Blastoid, cell line based artificial blastocyst” (Universiteit Maastricht, priority 2013, dated 2017).

B1: Wnt3a: Wnt ligand (protein, UniProt P56704 19-352, looked up)
Protein Wnt-3a: SYPIWWSLAVGPQYSSLGSQPILCASIPGLVPKQLRFCRNYVEIMPSVAEGIKIGIQECQHQFRGRRWNCTTVHDSLAIFGPVLDKATRESAFVHAIASAGVAFAVTRSCAEGTAAICGCSSRHQGSPGKGWKWGGCSEDIEFGGMVSREFADARENRPDARSAMNRHNNEAGRQAIASHMHLKCKCHGLSGSCEVKTCWWSQPDFRAIGDFLKDKYDSASEMVVEKHRESRGWVETLRPRYTYFKVPTERDLVYYEASPNFCEPNPETGSFGTRDRTCNVSSHGIDGCDLLCCGRGHNARAERRREKCRCVFHWCCYVSCQECTRVYDVHTCK
B2: HB-EGF: a protein and a growth factor known in the art to activate the MAPK signalling pathway (protein, UniProt Q99075 63-148, looked up)
Heparin-binding EGF-like …: DLQEADLDLLRVTLSSKPQALATPNKEEHGKRKKKGKGLGKKRDPCLRKYKDFCIHGECKYVKELRAPSCICHPGYHGERCHGLSL
modifications: Heparin-binding EGF-like growth factor

Columns and labels:
[1] = tested on: ES-TS cell clusters; experiment: Cavitation of ES-TS cell clusters (yield of cavitated blastoids); assay type: cell-based, mouse; conditions: FIG. 4h; CHIR99021 at 3 uM
Procedure: FIG. 4c: […], The yield of cavitated blastoids is described by the percentage of ES-TS cell clusters that were cavitated after 96 hours of culture, thus forming an artificial blastocyst or blastoid. […]
The efficiency of blastoid formation is measured as the percentage of cavitated structures with (1) an external cellular layer expressing the transcription factors CDX2, Eomes and GATA3 and (2) an internal cellular aggregate expressing the transcription factors Oct4 and Sox2 and at least partly Nanog.
The formation of a cavity is assessed by the formation of a volume within the aggregate that is not occupied by cellular nucleus. The formation of a cavity is preferably assessed using the cross-sectional section of a cellular aggregate stained with a nuclear-specific dye (for example DAPI).
• Double layer formation: the formation of an (at least) double layered cell aggregate with an external layer of TS cells and an inner layer of ES cells is evaluated using transgenic cell lines. […] The H2B-RFP ES cells are thus constitutively expressing a red fluorescence within their nucleus which allows for their tracking. • TS cells were derived from a mouse constitutively expressing Green Fluorescent Protein (GFP) under the control of a cytomegalovirus promoter in all cells. […]

[2] = tested on: Cdx2 expression in trophoblast stem cells of ES-TS aggregates; experiment: Cdx2 expression by CDX2 immunostaining; assay type: cell-based, mouse; conditions: CDX2 immunostaining (FIG. 4g)
Procedure: • Double layer formation: the formation of an (at least) double layered cell aggregate with an external layer of TS cells and an inner layer of ES cells is evaluated using transgenic cell lines. Specifically, ES cells were transfected with Histone 2B and a Red Fluorescent Protein under the control of a cytomegalovirus promoter and clonally derived. The H2B-RFP ES cells are thus constitutively expressing a red fluorescence within their nucleus which allows for their tracking. • TS cells were derived from a mouse constitutively expressing Green Fluorescent Protein (GFP) under the control of a cytomegalovirus promoter in all cells. The GFP TS cells are thus expressing a green fluorescence in their cytoplasma which allows for their tracking. • The formation of a double-layered aggregate is thus assessed by observing a green outer layer of cells and a red inner layer of cells. The efficiency of engulfment is determined as the percentage of green-colored projection area (representing the TS cell layer) that overlaps with an artificial 3-pixel-wide ring drawn around the red-colored projection area (representing the inner aggregate of ES cells) after 24 hours of culturing the ES-TS cell clusters. […] The formation of a cavity is preferably assessed using the cross-sectional section of a cellular aggregate stained with a nuclear-specific dye (for example DAPI). […]

| Molecule | yield of cavitated blastoids / cavitation [1] | Cdx2 expression [2] |
| --- | --- | --- |
| B1 | increases the yield of cavitated blastoids | – |
| B2 | – | positively correlates with an increase of Cdx2 expression |
